The record followed here is PMC1891329.

The target in the experiment is full-length MglA (residues 1–205) fused to Zif or to the ω subunit of E. coli RNAP (F. tularensis subspecies holarctica LVS). The experiment can be described thus: two-hybrid.

The substance “full-length F. tularensis LVS SspA (residues 1–210) fused to the ω subunit of E. coli RNAP or to Zif (natural protein)” displayed a fold activation of the lacZ reporter of 22 fold.
